Literature values in publication PMC9523730.

Target: 14-3-3ζ (Homo sapiens) (UniProt P63104)
Experiment: various biophysical approaches

**Q.** With 14-3-3ζ (from UniProt P63104) as the substance, how does the Kd read?
**A.** 5 nM
